The supplement of paper PMC11246515
± gives the standard deviation of the averaged measurements.

Assay: total protein half-life in vivo (active degradation + dilution); higher = more stable protein
[1] = E. coli NCM3722 delta-clpP delta-lon delta-hslV, growth: N-lim chemostat, doubling time 6 h
[2] = E. coli NCM3722 delta-clpP, growth: N-lim chemostat, doubling time 6 h
[3] = E. coli NCM3722 delta-hslV, growth: N-lim chemostat, doubling time 6 h
[4] = E. coli NCM3722 delta-lon, growth: N-lim chemostat, doubling time 6 h
[5] = E. coli NCM3722 delta-smpB, growth: N-lim chemostat, doubling time 6 h
[6] = wild type E. coli NCM3722, growth: C-lim chemostat, doubling time 3 h
[7] = wild type E. coli NCM3722, growth: C-lim chemostat, doubling time 6 h
[8] = wild type E. coli NCM3722, growth: C-lim chemostat, doubling time 12 h
[9] = wild type E. coli NCM3722, growth: N-lim chemostat, doubling time 6 h
[10] = wild type E. coli NCM3722, growth: N-lim chemostat, doubling time 12 h
[11] = wild type E. coli NCM3722, growth: P-lim chemostat, doubling time 6 h
[12] = wild type E. coli NCM3722, growth: P-lim chemostat, doubling time 12 h

Sequence	total protein half-life in vivo [1]	total protein half-life in vivo [2]	total protein half-life in vivo [3]	total protein half-life in vivo [4]	total protein half-life in vivo [5]	total protein half-life in vivo [6]	total protein half-life in vivo [7]	total protein half-life in vivo [8]	total protein half-life in vivo [9]	total protein half-life in vivo [10]	total protein half-life in vivo [11]	total protein half-life in vivo [12]
MEKTYNPQDIEQPLYEHWEKQGYFKPNGDESQESFCIMIPPPNVTGSLHMGHAFQQTIMDTMIRYQRMQGKNTLWQVGTDHAGIATQMVVERKIAAEEGKTRHDYGREAFIDKIWEWKAESGGTITRQMRRLGNSVDWERERFTMDEGLSNAVKEVFVRLYKEDLIYRGKRLVNWDPKLRTAISDLEVENRESKGSMWHIRYPLADGAKTADGKDYLVVATTRPETLLGDTGVAVNPEDPRYKDLIGKYVILPLVNRRIPIVGDEHADMEKGTGCVKITPAHDFNDYEVGKRHALPMINILTFDGDIRESAQVFDTKGNESDVYSSEIPAEFQKLERFAARKAVVAAVDALGLLEEIKPHDLTVPYGDRGGVVIEPMLTDQWYVRADVLAKPAVEAVENGDIQFVPKQYENMYFSWMRDIQDWCISRQLWWGHRIPAWYDEAGNVYVGRNEDEVRKENNLGADVVLRQDEDVLDTWFSSALWTFSTLGWPENTDALRQFHPTSVMVSGFDIIFFWIARMIMMTMHFIKDENGKPQVPFHTVYMTGLIRDDEGQKMSKSKGNVIDPLDMVDGISLPELLEKRTGNMMQPQLADKIRKRTEKQFPNGIEPHGTDALRFTLAALASTGRDINWDMKRLEGYRNFCNKLWNASRFVLMNTEGQDCGFNGGEMTLSLADRWILAEFNQTIKAYREALDSFRFDIAAGILYEFTWNQFCDWYLELTKPVMNGGTEAELRGTRHTLVTVLEGLLRLAHPIIPFITETIWQRVKVLCGITADTIMLQPFPQYDASQVDEAALADTEWLKQAIVAVRNIRAEMNIAPGKPLELLLRGCSADAERRVNENRGFLQTLARLESITVLPADDKGPVSVTKIIDGAELLIPMAGLINKEDELARLAKEVAKIEGEISRIENKLANEGFVARAPEAVIAKEREKLEGYAEAKAKLIEQQAVIAAL	5.35 ± 0.76 h	5.48 ± 1.1 h	4.68 ± 0.11 h	5.17 ± 0.062 h	4.417 ± 0.013 h	3 ± 0.27 h	5.796 ± 0.013 h	10.5 ± 0.32 h	4.721 ± 0.046 h	7.86 ± 0.2 h	5.92 ± 0.23 h	10.7 ± 0.61 h
MELATTQSVLMQIQPTIQRFARMLASVLQLEVEIVDENLCRVAGTGAYGKFLGRQLSGNSRLLRHVLETKTEKVVTQSRFDPLCEGCDSKENCREKAFLGTPVILQDRCVGVISLIAVTHEQQEHISDNLREFSDYVRHISTIFVSKLLEDQGPGDNISKIFATMIDNMDQGVLVVDDENRVQFVNQTALKTLGVVQNNIIGKPIRFRPLTFESNFTHGHMQHIVSWDDKSELIIGQLHNIQGRQLFLMAFHQSHTSFSVANAPDEPHIEQLVGECRVMRQLKRLISRIAPSPSSVMVVGESGTGKEVVARAIHKLSGRRNKPFIAINCAAIPEQLLESELFGYVKGAFTGASANGKTGLIQAANTGTLFLDEIGDMPLMLQAKLLRAIEAREILPIGASSPIQVDIRIISATNQNLAQFIAEGKFREDLFYRLNVIPITLPPLRERQEDIELLVHYFLHLHTRRLGSVYPGIAPDVVEILRKHRWPGNLRELSNLMEYLVNVVPSGEVIDSTLLPPNLLNNGTTEQSDVTEVSEAHLSLDDAGGTALEEMEKQMIREALSRHNSKKQVADELGIGIATLYRKIKKYELLNT	4.91 ± 0.062 h	–	–	–	–	1.46 ± 0.072 h	2.41 ± 0.17 h	2.87 ± 0.29 h	–	1.52 h	–	2.56 h
MELIEKHVSFGGWQNMYRHYSQSLKCEMNVGVYLPPKAANEKLPVLYWLSGLTCNEQNFITKSGMQRYAAEHNIIVVAPDTSPRGSHVADADRYDLGQGAGFYLNATQAPWNEHYKMYDYIRNELPDLVMHHFPATAKKSISGHSMGGLGALVLALRNPDEYVSVSAFSPIVSPSQVPWGQQAFAAYLAENKDAWLDYDPVSLISQGQRVAEIMVDQGLSDDFYAEQLRTPNLEKICQEMNIKTLIRYHEGYDHSYYFVSSFIGEHIAYHANKLNMR	7.46 h	–	–	4.61 h	2.58 h	2.74 ± 0.72 h	7.26 ± 1 h	6.87 h	–	–	–	10.9 h
MELKATTLGKRLAQHPYDRAVILNAGIKVSGDRHEYLIPFNQLLAIHCKRGLVWGELEFVLPDEKVVRLHGTEWGETQRFYHHLDAHWRRWSGEMSEIASGVLRQQLDLIATRTGENKWLTREQTSGVQQQIRQALSALPLPVNRLEEFDNCREAWRKCQAWLKDIESARLQHNQAYTEAMLTEYADFFRQVESSPLNPAQARAVVNGEHSLLVLAGAGSGKTSVLVARAGWLLARGEASPEQILLLAFGRKAAEEMDERIRERLHTEDITARTFHALALHIIQQGSKKVPIVSKLENDTAARHELFIAEWRKQCSEKKAQAKGWRQWLTEEMQWSVPEGNFWDDEKLQRRLASRLDRWVSLMRMHGGAQAEMIASAPEEIRDLFSKRIKLMAPLLKAWKGALKAENAVDFSGLIHQAIVILEKGRFISPWKHILVDEFQDISPQRAALLAALRKQNSQTTLFAVGDDWQAIYRFSGAQMSLTTAFHENFGEGERCDLDTTYRFNSRIGEVANRFIQQNPGQLKKPLNSLTNGDKKAVTLLDESQLDALLDKLSGYAKPEERILILARYHHMRPASLEKAATRWPKLQIDFMTIHASKGQQADYVIIVGLQEGSDGFPAAARESIMEEALLPPVEDFPDAEERRLMYVALTRARHRVWALFNKENPSPFVEILKNLDVPVARKP	6.73 ± 0.37 h	5.42 ± 0.098 h	4.93 ± 0.55 h	5.31 ± 0.26 h	4.17 ± 0.1 h	2.66 ± 0.17 h	5.06 ± 0.43 h	8.95 ± 0.32 h	4.45 ± 0.033 h	7.69 ± 0.31 h	4.69 ± 0.16 h	9.53 ± 0.42 h
MELLCPAGNLPALKAAIENGADAVYIGLKDDTNARHFAGLNFTEKKLQEAVSFVHQHRRKLHIAINTFAHPDGYARWQRAVDMAAQLGADALILADLAMLEYAAERYPHIERHVSVQASATNEEAINFYHRHFDVARVVLPRVLSIHQVKQLARVTPVPLEVFAFGSLCIMSEGRCYLSSYLTGESPNTIGACSPARFVRWQQTPQGLESRLNEVLIDRYQDGENAGYPTLCKGRYLVDGERYHALEEPTSLNTLELLPELMAANIASVKIEGRQRSPAYVSQVAKVWRQAIDRCKADPQNFVPQSAWMETLGSMSEGTQTTLGAYHRKWQ	4.53 h	–	–	–	–	–	–	–	–	–	–	–
MELLLLSNSTLPGKAWLEHALPLIAEQLQGRRSAVFIPFAGVTQTWDDYTAKTAAVLAPLGVSVTGIHSVVDPVAAIENAEIVIVGGGNTFQLLKQCRERGLLAPITDVVKRGALYIGWSAGANLACPTIRTTNDMPIVDPQGFDALNLFPLQINPHFTNALPEGHKGETREQRIRELLVVAPELTIIGLPEGNWITVSKGHATLGGPNTTYVFKAGEEAVPLEAGHRF [P0A7C6]	3.28 h	–	–	–	–	3.03 h	4.93 ± 0.56 h	9.36 h	4.73 h	5.8 h	5.69 ± 0.077 h	11.1 ± 0.86 h
MELYLDTSDVVAVKALSRIFPLAGVTTNPSIIAAGKKPLDVVLPQLHEAMGGQGRLFAQVMATTAEGMVNDALKLRSIIADIVVKVPVTAEGLAAIKMLKAEGIPTLGTAVYGAAQGLLSALAGAEYVAPYVNRIDAQGGSGIQTVTDLHQLLKMHAPQAKVLAASFKTPRQALDCLLAGCESITLPLDVAQQMISYPAVDAAVAKFEQDWQGAFGRTSI	4.96 ± 0.38 h	4.345 ± 0.017 h	4.474 ± 0.0021 h	4.44 ± 0.26 h	4.3899 ± 0.004 h	2.703 ± 0.021 h	5.36 h	8.19 ± 0.81 h	3.81 ± 0.38 h	7.04 ± 2.2 h	5.72 ± 0.61 h	10 ± 0.64 h
